Assay results taken from article PMC3018788 (The EMBO Journal, 2010).

Legend:
[1] = biological target: recombinant MBP-tagged DmPABPC1 (D. melanogaster, UniProt P21187 1-634); experiment: pull-down
[2] = biological target: recombinant MBP-tagged HsPABPC1 (human, UniProt P11940 1-636); experiment: pull-down
Chain of recombinant MBP-tagged HsPABPC1 (P11940 whole entry): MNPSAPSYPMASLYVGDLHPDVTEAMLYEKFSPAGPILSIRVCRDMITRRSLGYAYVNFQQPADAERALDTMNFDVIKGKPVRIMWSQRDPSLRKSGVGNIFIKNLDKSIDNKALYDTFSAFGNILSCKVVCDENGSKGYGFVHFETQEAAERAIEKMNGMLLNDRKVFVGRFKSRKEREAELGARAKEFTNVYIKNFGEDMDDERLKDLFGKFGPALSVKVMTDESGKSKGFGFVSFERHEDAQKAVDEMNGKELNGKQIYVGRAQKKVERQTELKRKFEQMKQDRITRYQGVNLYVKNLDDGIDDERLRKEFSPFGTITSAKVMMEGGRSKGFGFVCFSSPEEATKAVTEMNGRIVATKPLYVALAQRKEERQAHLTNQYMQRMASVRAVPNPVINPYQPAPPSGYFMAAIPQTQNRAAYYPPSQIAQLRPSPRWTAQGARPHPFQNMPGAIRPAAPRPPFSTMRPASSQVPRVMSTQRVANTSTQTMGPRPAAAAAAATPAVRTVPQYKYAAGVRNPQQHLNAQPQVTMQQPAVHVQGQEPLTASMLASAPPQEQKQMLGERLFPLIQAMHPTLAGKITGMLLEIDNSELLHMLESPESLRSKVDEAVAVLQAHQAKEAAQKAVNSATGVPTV

Chain of recombinant MBP-tagged DmPABPC1 (P21187 whole entry): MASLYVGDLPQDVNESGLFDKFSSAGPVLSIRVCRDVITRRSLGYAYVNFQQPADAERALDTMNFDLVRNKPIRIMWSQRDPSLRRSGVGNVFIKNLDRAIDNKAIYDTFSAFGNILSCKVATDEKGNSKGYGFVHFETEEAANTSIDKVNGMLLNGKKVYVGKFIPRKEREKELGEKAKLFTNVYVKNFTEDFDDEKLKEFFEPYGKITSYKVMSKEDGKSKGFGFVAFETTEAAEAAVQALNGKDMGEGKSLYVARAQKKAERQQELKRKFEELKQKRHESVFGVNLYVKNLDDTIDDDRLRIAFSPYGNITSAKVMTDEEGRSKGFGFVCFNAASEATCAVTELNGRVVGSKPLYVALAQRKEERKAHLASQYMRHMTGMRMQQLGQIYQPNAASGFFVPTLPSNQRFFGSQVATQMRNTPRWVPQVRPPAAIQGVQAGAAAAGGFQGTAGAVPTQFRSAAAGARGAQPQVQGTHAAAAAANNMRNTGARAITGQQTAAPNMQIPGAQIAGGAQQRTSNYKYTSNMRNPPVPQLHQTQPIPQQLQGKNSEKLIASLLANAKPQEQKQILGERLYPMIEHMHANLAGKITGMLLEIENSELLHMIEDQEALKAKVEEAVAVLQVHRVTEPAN

binding result [1] | binding result [2] | Binder
binds |  | GST-GW182-SD (domain or fragment, D. melanogaster, UniProt Q8SY33 937-1384, looked up) NENKDWSVAQPTSAATAYTDLVQEFEPGKPWKGSQIKSIEDDPSITPGSVARSPLSINSTPKDADIFANTGKNSPTDLPPLSLSSSTWSFNPNQNYPSHSWSDNSQQCTATSELWTSPLNKSSSRGPPPGLTANSNKSANSNASTPTTITGGANGWLQPRSGGVQTTNTNWTGGNTTWGSSWLLLKNLTAQIDGPTLRTLCMQHGPLVSFHPYLNQGIALCKYTTREEANKAQMALNNCVLANTTIFAESPSENEVQSIMQHLPQTPSSTSSSGTSGGNVGGVGTSANNANSGSAACLSGNNSGNGNGSASGAGSGNNGNSSCNNSAAGGGSSSNNTITTVANSNLVGSSGSVSNSSGVTANSSTVSVVSCTASGNSINGAGTANSSGSKSSANNLASGQSSASNLTNSTNSTWRQTSQNQALQSQSRPSGREADFDYISLVYSIVDD
 | binds | GST-TNRC6B-SD (domain or fragment, human, UniProt Q9UPQ9-1 1361-1723, looked up) SSNASWPPEFQPGVPWKGIQNIDPESDPYVTPGSVLGGTATSPIVDTDHQLLRDNTTGSNSSLNTSLPSPGAWPYSASDNSFTNVHSTSAKFPDYKSTWSPDPIGHNPTHLSNKMWKNHISSRNTTPLPRPPPGLTNPKPSSPWSSTAPRSVRGWGTQDSRLASASTWSDGGSVRPSYWLVLHNLTPQIDGSTLRTICMQHGPLLTFHLNLTQGTALIRYSTKQEAAKAQTALHMCVLGNTTILAEFATDDEVSRFLAQAQPPTPAATPSAPAAGWQSLETGQNQSDPVGPALNLFGGSTGLGQWSSSAGGSSGADLAGASLWGPPNYSSSLWGVPTVEDPHRMGSPAPLLPGDLLGGGSDSI
